{
  "source": "patent US20110009597A1",
  "about": "“RECOMBINANT GANODERMA LUCIDIUM IMMUNOMODULATORY PROTEIN (rLZ-8) AND USES THEREOF” (priority 2008, published 2011)",
  "key": {"HL-60": {"tested_on": "HL-60", "assay": "Annexin V-FITC flow cytometry, apoptosis of HL-60", "format": "cell-based", "conditions": "HL-60, positive drug group, 24 h, Annexin V/PI", "procedure": "(§1) FACS Calibur flow cytometry, U.S. Becton-Dickinson.Coompany. NB4, HL-60. rLZ-8 is prepared with IMDM culture medium containing 2% FCS into the preparation of 0.1 μg·ml^−1, 0.5 μg·ml^−1, 2.5 μg·ml^−1, arsenic trioxide (As2O3) 0.5 μg·ml^−1 AnnexinV-FITC kit: combining buffer solution 4×; Propidium iodide solution (PI), 20 μg·ml−1, 0.2 ml; recombinant human Annexin V/FITC, 0.1 ml.\n(§2) Establish NB4 normal control group, positive drug group (As2O3 0.5 μg·ml^−1), protein low-dose group (0.1 μg·ml^−1), medium-dose group (0.5 μg·ml^−1), high-dose group, (2.5 μg·ml^−1); establish HL-60 normal control group, protein low-dose group (0.1 μg·ml^−1), medium-dose group (0.5 μg·ml^−1), high-dose group, (2.5 μg·ml^−1).\n(§3) Mix NB4 and HL-60 cell into 24-orifice plate respectively, 1 ml/hole supply rLZ-8 in different concentrates, set 3-orifice multipunches for each group. Put them in 37° C., 5% CO2 incubator for 24 h, collect the cells of each concentrate, washes the cells twice with pre-cooled PBS 4° C., with 250 μl binding buffer solution re-suspending cells and regulates the cell density to 1×10^6/ml, taking out 100 μl to 5 ml streaming tube, and add 5 μl Annexin V/FITC and 10 μl 20 μg·ml^−1 PI solution, after mixing put it in room temperature and lucifuged hatching 15 min, add 400 μl PBS by flow cytometry analysis."}, "[1]": {"tested_on": "Human Promyelocytic Leukemia NB4 Cells", "assay": "Killing effect of rLZ-8 on NB4 cells (MTT, OD570nm)", "format": "cell-based", "conditions": "As2O3 10 μg ml^−1, 48 h", "procedure": "After filtration and degerming, we prepared 8 concentrations using IMDM culture medium which are respectively 0.78 μg·ml^−1, 1.56 μg·ml^−1, 3.125 μg·ml^−1, 6.25 μg·ml^−1, 12.5 μg·ml^−1, 25 μg·ml^−1, 50 μg·ml^−1, 100 μg·ml^−1.\nOn 96-orifice culture medium plate, the pilot orifice plus NB4 tumor cells 0.1 ml and rLZ-8 0.1 ml, rLZ-8 concentrates from low to high; negative control group plus NB4 tumor cells and culture medium of 0.1 ml respectively; positive drug control group arsenic trioxide As2O3; make six-aperture multipunches for each group. Placing in 37° C., 5% CO2 incubator 48 h, adding MTT15 μl (5 mg ml^−1) prior to the termination of 4 h, after the termination of cell culture by adding 100 μl 0.1 mol L^−1 hydrochloric acid isopropyl alcohol, testing on the enzyme-linked immunosorbent OD570nm values."}, "[2]": {"tested_on": "Human Chronic Myelogenous Leukemia K562 Cells", "assay": "Lethal effect of rLZ-8 on K562 cells (MTT, OD570nm)", "format": "cell-based", "conditions": "As2O3 10 μg ml^−1, 48 h", "procedure": "After sterilization of rLZ-8, we prepared 6 concentrations using IMDM culture medium, which are respectively 3.125 μg·ml^−1, 6.25 μb·ml^−1, 12.5 μg·ml^−, 25 μg·ml^−1, 50 μg·ml^−1, 100 μg·ml^−1.\nOn 96-orifice culture plate, the pilot aperture plus K562 tumor cells 0.1 ml and rLZ-8 0.1 ml, rLZ-8 concentrations from low to high; negative control group plus K562 tumor cells and culture medium of the 0.1 ml respectively; positive drug control group arsenic trioxide As2O3; make six-aperture multipunches for each group. Placing in 37° C., 5% CO2 incubator 48 h, adding MTT15 μl (5 mg ml^−1) prior to the termination of 4 h, after the termination of cell culture by adding 100 μl 0.1 mol L^−1 hydrochloric acid isopropyl alcohol, testing OD values570nm on the enzyme immunosorbent detector."}, "NB4": {"tested_on": "NB4", "assay": "Annexin V-FITC flow cytometry, apoptosis of NB4", "format": "cell-based", "conditions": "NB4, As2O3 0.5 μg·ml^−1, 24 h, Annexin V/PI", "procedure": "as §1, §2, §3"}, "WBC [3]": {"tested_on": "WBC", "assay": "Cyclophosphamide low-leucocyte mice model, WBC", "format": "in vivo", "parameters": "unit not given here", "conditions": "Genlei Scimax 3.2 μg·kg−1", "procedure": "rLZ-8 preparation of sterile saline. Divide them into 5 μg·kg^−1, 2.5 μg√kg^−1, 1.25 μg·kg^−1, 0.62 μg·kg^−1 dose groups.\nGenlei™ Scimax™ [Recombinant human granulocyte colony-stimulating factor injection (rhG-CSF)], production lot: 20060403; 75 μg/vial is prepared with sterile normal saline into the preparation of 3.2 μg·kg^−1, 0.2 ml/vial.\nCyclophosphamide (CP) for injection (the production lot number 050216; 200 mg/vial) is prepared with sterile normal saline into the preparation of 12.5 mg·kg^−1, 0.2 ml/vial.\nNormal control group, several protein dose groups, positive control group (Genlei™ Scimax™).\n(§4) Excluding the normal control group (given same normal saline), each group of mice were given tail vein injection of cyclophosphamide, 1.25 μg·kg^−1, 0.2 ml/vial, for 3 consecutive days. On 3rd day, rat tail venous blood sampling, sent to Jilin University First Hospital laboratory, cell analyze the number of WBC. After successful modeling, they were given to the above groups respective dose of rLZ-8 and positive drugs (Genlei™ Scimax™) treatment, the normal control group and CP groups were given same normal saline, on the 3rd, 7th and 14th day of the treatment to draw venous blood from mice tail respectively, sent to Jilin University First Hospital testing the numbers of WBC. Compare WBC changes before and after the treatment for analysis of drug efficacy."}, "WBC [4]": {"tested_on": "WBC", "assay": "Prevention of radiation leucopenia model of mice, WBC", "format": "in vivo", "parameters": "unit not given here", "conditions": "Genlei Scimax 3.2 μg", "procedure": "rLZ-8 preparation of sterile saline. Divide them into 5 μg·kg^−1, 2.5 μg·kg^−1, 1.25 μg·kg^−1, 0.62 μg·kg^−1 dose groups. 0.2 ml/vial.\nGenlei™ Scimax™ [Recombinant human granulocyte colony-stimulating factor injection (rhG-CSF)], production lot: 20060403; 150 μg/vial is prepared with sterile normal saline into the preparation of 3.2 μg·kg^−1, 0.2 ml/vial.\n(§5) The mice were irradiated by 7.5 Gy γ-ray (180 mV, 15 mA) and then divided into seven groups (n=10): (A) negative control; (B) 5 μg·kg−1 dose; (C) 2.5 μg·kg−1 dose; (D) 1.25 μg·kg−1 dose; (E) 0.62 μg·kg−1 dose; (F) positive control (Genlei™ Scimax™); (G) model group. Before modeling 5 days, mice in each group were administered with Genlei™ Scimax™ and rLZ-8 for 5 days, on the 5th day, mice were radiated, for 5 days, and on the 7th day, drew blood from tail, tested the number of WBC, weight spleen, calculated index of spleen."}, "WBC [5]": {"tested_on": "WBC", "assay": "Treatment of radiation leucopenia model of mice, WBC", "format": "in vivo", "parameters": "unit not given here", "conditions": "Genlei Scimax 3.2 μg·kg^−1; 7.5 Gy γ-ray", "procedure": "(§6) rLZ-8 preparation of sterile saline. Divide them into 5 ∞g·kg^−1, 2.5 μg·kg^−1, 1.25 μg·kg^−1, 0.62 μg·kg^−1 dose groups. 0.2 ml/vial.\n(§7) Genlei™ Scimax™ [Recombinant human granulocyte colony-stimulating factor injection (rhG-CSF)], production lot: 20060403; 150m/vial is prepared with sterile normal saline into the preparation of 3.2 μg·kg^−1, 0.2 ml/vial.\nas §5, with “group. Together with modeling,” for “group. Before modeling 5 days,”, “for 9” for “for 5”, “days,” for “days, on the 5th day, mice were radiated, for 5 days, and on the 7th day,”"}, "spleen": {"tested_on": "spleen", "assay": "Colony forming unit-spleen and spleen index in radiation model of mice", "format": "in vivo", "conditions": "Genlei Scimax 3.2 μg·kg^−1", "procedure": "as §6, §7\nas §5, with “group. Together with modeling,” for “group. Before modeling 5 days,”, “for 9” for “for 5”, “days,” for “days, on the 5th day, mice were radiated, for 5 days, and on the 7th day,”"}, "WBC [6]": {"tested_on": "WBC", "assay": "Cyclophosphamide low-leucocyte rat model, WBC", "format": "in vivo, rats", "parameters": "unit not given here", "conditions": "Genlei Scimax 9.45 μg·kg−1", "procedure": "rLZ-8 preparation of sterile saline. Divide them into 20 μg·kg^−1, 10 μg·kg^−1, 5 μg·kg^−1, 2.5 μg·kg^−1, 1.25 μg·kg^−1, 0.625 μg·kg^−1, 0.31 μg·kg^−1 dose groups.\nGenlei™ Scimax™ [Recombinant human granulocyte colony-stimulating factor injection (rhG-CSF)], production lot: 20060403; 75 μg/vial is prepared with sterile normal saline into the preparation of 9.45 μg·ml^−1, 0.1 ml/vial.\nCyclophosphamide (CP), the production lot number 050216; 200 mg/vial is prepared with sterile normal saline into the preparation of 20 mg·ml^−1, 0.1 ml/vial, namely, 49 mg·kg^−1.\nNormal control group, protein low-dose group, protein medium-dose group, protein high-dose group, positive control group (Genlei™ Scimax™)\nas §4, with “rats” for “mice”, “20 mg·ml^−1, 0.1” for “1.25 μg·kg^−1, 0.2”"}},
  "data": [
    {"molecule": "arsenic trioxide [As2O3, reference compound]", "values": [
      {"measurement": "Apoptosis rate", "setting": "HL-60", "value": 39.7, "unit": "%"},
      {"measurement": "Growth inhibition rate (%)", "setting": "[1]", "value": 72, "unit": "%"},
      {"measurement": "OD570 nm", "setting": "[1]", "value": "0.33 ± 0.01"},
      {"measurement": "Growth inhibition rate (%)", "setting": "[2]", "value": 78.2, "unit": "%"},
      {"measurement": "OD570 nm", "setting": "[2]", "value": "0.22 ± 0.03"},
      {"measurement": "Apoptosis rate", "setting": "NB4", "value": 23.4, "unit": "%"}
    ]},
    {"molecule": "Genlei ™ Scimax ™: Recombinant human granulocyte colony-stimulating factor injection (rhG-CSF) (protein, UniProt P09919 31-207, looked up) Granulocyte …: TPLGPASSLPQSFLLKCLEQVRKIQGDGAALQEKLVSECATYKLCHPEELVLLGHSLGIPWAPLSSCPSQALQLAGCLSQLHSGLFLYQGLLQALEGISPELGPTLDTLQLDVADFATTIWQQMEELGMAPALQPTQGAMPAFASAFQRRAGGVLVASHLQSFLEVSYRVLRHLAQP", "values": [
      {"measurement": "WBC, 3rdday of medication", "setting": "WBC [3]", "value": "5.5 ± 0.12"},
      {"measurement": "WBC, 7thday of medication", "setting": "WBC [3]", "value": "22.7 ± 0.12"},
      {"measurement": "WBC, 14thday of medication", "setting": "WBC [3]", "value": "13.0 ± 0.19"},
      {"measurement": "WBC, 5th day (rLZ-8)", "setting": "WBC [4]; 5th day of administration before radiation", "value": "21.8 ± 0.35"},
      {"measurement": "WBC, 5th day", "setting": "WBC [4]; after 7.5 Gy γ-ray", "value": "0.26 ± 0.20"},
      {"measurement": "WBC, 7th day", "setting": "WBC [4]; after 7.5 Gy γ-ray", "value": "0.22 ± 0.12"},
      {"measurement": "WBC, 5th day", "setting": "WBC [5]", "value": "0.68 ± 0.35"},
      {"measurement": "WBC, 7th day", "setting": "WBC [5]", "value": "0.58 ± 0.35"},
      {"measurement": "WBC, 9th day", "setting": "WBC [5]", "value": "0.80 ± 0.11"},
      {"measurement": "colony forming unit-spleen number", "setting": "spleen", "value": "6.0 ± 0.11"},
      {"measurement": "growth rate", "setting": "spleen", "value": 26, "unit": "%"},
      {"measurement": "index (spleen)", "setting": "spleen", "value": "0.20 ± 0.10"},
      {"measurement": "WBC, 3rdday of medication", "setting": "WBC [6]", "value": "1.4 ± 0.11"},
      {"measurement": "WBC, 7thday of medication", "setting": "WBC [6]", "value": "13.1 ± 0.21"},
      {"measurement": "WBC, 14thday of medication", "setting": "WBC [6]", "value": "10.3 ± 0.14"}
    ]}
  ]
}
